The target of assay [1] is T1, AP2M1 (residues 160-435) (Homo sapiens, UniProt Q96CW1).
T1 construct: The AP2M1 fragment (residues 160-435) was cloned into a modified pET28a; His6 (N, cleaved yes); made in house; host or cells: E. coli BL21(DE3)
T1 sequence (Q96CW1 160-435): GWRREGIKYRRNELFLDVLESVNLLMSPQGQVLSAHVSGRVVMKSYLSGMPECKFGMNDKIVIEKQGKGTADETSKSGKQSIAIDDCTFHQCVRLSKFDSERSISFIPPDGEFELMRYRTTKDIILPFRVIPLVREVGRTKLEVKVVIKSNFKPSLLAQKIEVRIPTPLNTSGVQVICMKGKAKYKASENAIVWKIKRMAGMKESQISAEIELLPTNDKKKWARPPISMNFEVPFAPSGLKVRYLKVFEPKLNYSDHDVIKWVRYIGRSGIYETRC
The experiment in a line: in vitro peptide pull-down of AP2M1 with IRS1 peptides. The class given is binding. The settings on record: peptide beads pull-down, SDS-PAGE, Coomassie. On the procedure:
FIGS. 2A-I. The MAPK pathway and SHP2 promote insulin-activated IR endocytosis. (FIG. 2A) HepG2 cells expressing IR-GFP WT were starved, treated with the indicated inhibitors for 2 h, treated without or with 100 nM insulin for 20 min, and stained with anti-GFP (IR; green) and DAPI (blue). See also FIG. 7A for representative images. Quantification of the ratios of PM and IC IR-GFP signals of cells was shown (mean±SD; *p<0.0001). (FIG. 2B) Binding of IRS1 peptides to AP2M1 (residues 160-435). Input and proteins bound to IRS1-peptide beads were analyzed by SDS-PAGE and stained with Coomassie (CBB). The relative band intensities are shown below (mean±SD; n=4 independent experiments). (FIG. 2C) ITC analysis of binding between IRS1 peptides and AP2M1 (residue 160-435), with the Kd indicated. (FIG. 2D) The IRS1 peptides were incubated with active SHP2 for the indicated durations, spotted onto membranes, and detected with the anti-pY612-IRS1 antibody. (FIG. 2E) Quantification of the relative SHP2 activity in FIG. 2D (mean±SD; n=4 independent experiments; *p<0.0001). (FIG. 2F) Model of the regulation of insulin-activated IR endocytosis by a phosphorylation switch on IRS1/2. Insulin-bound IR phosphorylates itself and IRS1/2, and activates the PI3K-AKT and MAPK pathways. SHP2 acts upstream of RAS-RAF and promotes the activation of MAPK pathway. p31^comet binds to the IR-bound MAD2 and blocks IR-AP2 association to prevent premature IR endocytosis. In feedback regulation, activated ERK1/2 phosphorylate S616 and other sites on IRS1. […]
For GST pull-down assays of in vitro translated (IVT) IRS1 proteins, beads bound to GST-AP2M1 or GST were incubated with IVT products diluted in the cell lysis buffer at 4° C. for 2 h. After incubation and washing, proteins bound to beads were eluted with the SDS loading buffer, resolved with SDS-PAGE, and detected with Coomassie staining or immunoblotting with the appropriate antibodies. […]

For assay [2], the target named is T2, SHP2 (Homo sapiens, UniProt Q06124).
T2 construct: purchased SignalChem
T2 sequence (Q06124 1-593): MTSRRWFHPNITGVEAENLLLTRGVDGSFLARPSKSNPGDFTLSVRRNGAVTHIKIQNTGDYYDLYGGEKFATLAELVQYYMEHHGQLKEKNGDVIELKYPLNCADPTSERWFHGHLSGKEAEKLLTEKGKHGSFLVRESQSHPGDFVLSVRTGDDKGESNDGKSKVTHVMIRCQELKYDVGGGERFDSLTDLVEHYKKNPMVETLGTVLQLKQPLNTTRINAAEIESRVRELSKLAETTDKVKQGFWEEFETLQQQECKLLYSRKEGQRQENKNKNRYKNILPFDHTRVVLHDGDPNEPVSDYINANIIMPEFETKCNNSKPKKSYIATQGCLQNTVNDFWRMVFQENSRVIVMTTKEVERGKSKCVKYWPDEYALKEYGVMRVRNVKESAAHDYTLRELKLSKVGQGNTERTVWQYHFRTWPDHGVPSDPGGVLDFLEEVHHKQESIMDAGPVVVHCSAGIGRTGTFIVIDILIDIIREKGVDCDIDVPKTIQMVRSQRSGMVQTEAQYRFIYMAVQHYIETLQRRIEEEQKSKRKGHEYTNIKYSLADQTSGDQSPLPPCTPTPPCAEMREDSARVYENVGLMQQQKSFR
The experiment in a line: in vitro phosphatase assay, dephosphorylation of IRS1 peptides by active SHP2. Format: biochemical. Conditions: doubly versus singly phosphorylated IRS1 peptide; active SHP2 2.9 μM, peptide 2.6 mM, 37° C. The source says:
To assess whether serine phosphorylation (pS616) of the YMPMS motif (SEQ ID NO:13) promotes dephosphorylation of pY612 by SHP2, its dephosphorylation kinetics were examined. […] Decreased IRS1 pS616 has been correlated with increased pY608 in vivo (Bard-Chapeau et al., 2005), and therefore, aside from directly augmenting the IRS1-AP2M1 interaction, ERK1/2-dependent phosphorylation of IRS1 indirectly promotes AP2M1 binding through enhancing the dephosphorylation of IRS1 by SHP2. Consistent with a role of ERK1/2-dependent phosphorylation of IRS1 in IR endocytosis, expression of the RNAi-resistant IRS1 phospho-mimicking mutant (3SD), but not the phospho-deficient mutant (3SA), restored IR endocytosis in 293FT cells depleted of IRS1/2 (FIG. 1G and FIG. 6E).
Active SHP2 (2.9 μM, SignalChem) diluted in the phosphatase dilution buffer (50 mM imidazole, pH 7.2, 0.2% 2-mercaptoethanol, 65 ng/μl BSA) was incubated with IRS1 peptides (2.6 mM) at 37° C. for the indicated time points. Two microliters of reaction products were spotted onto 0.45 m nitrocellulose membrane (BioRad) and dried completely. The membrane was blocked with 5% nonfat milk in TBS for 1 h, and washed once with TBS-T (0.02% Tween 20). […] The membranes were scanned with the Odyssey Infrared Imaging System (LI-COR, Lincoln, Nebr.) for quantification.

Where no end group is shown, it is not given here. [ ]: non-standard residue; d: D form. pY = N[C@@H](Cc1ccc(OP(=O)(O)O)cc1)C(=O)O; pS = N[C@@H](COP(=O)(O)O)C(=O)O

In the case of “pYMPMpS: doubly phosphorylated IRS1 peptide CHTDDGpYMPMpSPGVA (SEQ ID NO:16) (CHTDDG[pY]MPM[pS]PGVA)”, the “binding to AP2M1” value in assay [1] is “abolished AP2M1 binding”. For the same substance, the “dephosphorylation of pY612 by SHP2” value in assay [2] was “promoted pY612 dephosphorylation by SHP2”.

For the origin of these results see patent US11426422B2, “SHP2 inhibitors and methods of use thereof” (Research Development Foundation, priority 2018, dated 2022).
